Test [1] has as its target HLA-B*27:05. The experiment in a line: IEDB peptide-MHC binding, purified MHC/direct/fluorescence; filed as Kd, often an IC50 or EC50 that approximates it; ≥ and ≤ were set here for values at or beyond the usual limits of such assays.
Test [2] concerns the target HLA-B*48:01. The test is described as above.
The target in test [3] is HLA-B*73:01. The description is as above.
The target in test [4] is HLA-A*24:02. Described as above.
For test [5], the target named is HLA-A*23:01. Described as above. Conditions: source organism: Orthohantavirus hantanense.
In test [6] the target is HLA-A*24:03. The test is described as above. Conditions: source organism: Orthohantavirus hantanense.
For test [7], the target named is HLA-B*44:02. The description is as above.
In test [8] the target is HLA-B*40:01. Described as above.
Test [9] deals with HLA-A*01:01. Described as above.
Test [10] concerns the target HLA-A*11:01. Described as above.
Test [11] deals with HLA-A*69:01. The test is described as above.
Test [12] has as its target HLA-A*26:01. The description is as above.
Test [13] addresses HLA-B*15:01. Described as above.
For test [14], the target named is HLA-B*07:02. The test is described as above.
Test [15] has as its target HLA-A*03:01. The test is described as above.
Test [16] concerns the target HLA-A*02:01. The test is described as above.
Test [17] has as its target HLA-A*30:01. The description is as above. The conditions noted are these: source organism: Vibrio parahaemolyticus.
Test [18] concerns the target HLA-B*08:01. The description is as above.
Test [19] concerns the target HLA-B*58:01. The description is as above.
Test [20] concerns the target HLA-A*02:11. Described as above. Conditions: source organism: Influenza A virus H3N2.
The target of test [21] is HLA-B*18:01. The test is described as above.
For test [22], the target named is HLA-A*02:16. The description is as above. The conditions noted are these: source organism: Influenza A virus H3N2.
Test [23] deals with HLA-B*46:01. Described as above.
Test [24] addresses HLA-A*31:01. The description is as above.
Test [25] concerns the target HLA-C*08:02. Described as above. Conditions: source organism: Xenopus laevis.
Test [26] has as its target HLA-B*15:09. Described as above.
The target in test [27] is HLA-B*27:05. The experiment in a line: IEDB peptide-MHC binding, purified MHC/competitive/fluorescence; filed as Kd, often an IC50 or EC50 that approximates it; ≥ and ≤ were set here for values at or beyond the usual limits of such assays. Conditions: source organism: Escherichia coli B171.
Test [28] concerns the target HLA-B*39:01. The description is as above. Conditions: source organism: Escherichia coli B171.
In test [29] the target is HLA-A*02:01. The test is described as above. Conditions: source organism: Escherichia coli B171.
The target of test [30] is HLA-B*08:02. In words: IEDB peptide-MHC binding, purified MHC/direct/fluorescence; filed as Kd, often an IC50 or EC50 that approximates it; ≥ and ≤ were set here for values at or beyond the usual limits of such assays. Conditions: source organism: Cryptosporidium parvum Iowa II.
Setting [31] is: source organism: Listeria monocytogenes.
Setting [32] is: source organism: Bacillus anthracis.
Setting [33] is: source organism: Vibrio parahaemolyticus.
Where [34] appears, read: source organism: Influenza A virus (A/swine/Cotes d'Armor/800/00(H1N2)).
Setting [35] is: source organism: Influenza A virus (A/Puerto Rico/8/34/Mount Sinai(H1N1)).
[36] abbreviates: source organism: Giardia lamblia ATCC 50803.
Setting [37] is: source organism: Brucella abortus.
The mark [38] stands for this setting: source organism: Cryptosporidium parvum.

Bounds are passed on as bounds.

For 10 sequences, Kd results are on record in the Immune Epitope Database (IEDB).

Usually Kd stands for the free concentration of one partner at which half of the binding sites on the other are occupied at equilibrium, for simple one-to-one binding. The low end stands for tighter binding, the high end for weaker binding. Turning to KRYKQMCTK, the dissociation constant (Kd) in test [1] (setting [31]) is 0.177 µM; in test [2] (setting [31]), at least 20 µM; in test [3] (source organism: Listeria monocytogenes serotype 4b str. H7858), at least 20 µM.

As to QWLIEPCKL, the values for the Kd in [4] (source organism: Orthohantavirus hantanense), in [5] and in test [6] were 0.155 µM, 0.18 µM and 0.205 µM, respectively.

In the case of RRMMMRITE, the equilibrium dissociation constant (Kd) is 0.28 µM in [1] (setting [32]), at least 20 µM in [2] (setting [32]) and 1.15 µM in test [3] (source organism: Bacillus cereus B4264).

Take IRSCWRYRK: the equilibrium dissociation constant (Kd) was at least 20 µM in [7] (setting [33]); at least 20 µM in [8] (setting [33]); 0.0748 µM in test [1] (setting [33]); at least 20 µM in test [9] (setting [33]); 2.14 µM in test [10] (setting [33]); at least 20 µM in [11] (setting [33]). The Kd in test [12] (setting [33]) was at least 20 µM; in test [13] (setting [33]), at least 20 µM; in [14] (setting [33]) it was at least 20 µM; in test [15] (setting [33]), 7.86 µM; in test [16] (setting [33]), at least 20 µM; in [17] it was 0.516 µM. For the same sequence, the equilibrium dissociation constant (Kd) is at least 20 µM in test [18] (setting [33]), 3.88 µM in [3] (source organism: Vibrio parahaemolyticus AQ3810) and at least 20 µM in [19] (setting [33]).

Take GMDPRMCSL: the dissociation constant Kd in [4] (setting [34]), in [7] (setting [34]), in test [8] (setting [34]), in test [1] (setting [34]), in test [9] (setting [34]) and in [10] (setting [34]) was at least 20 µM in each case. The dissociation constant Kd in test [11] (setting [34]) was at least 20 µM; in [20], 0.011 µM; in test [13] (setting [34]) it was at least 20 µM; in [14] (setting [35]), 1.66 µM; in [15] (setting [34]), at least 20 µM; in [16] (setting [35]), 0.392 µM. The Kd in test [21] (setting [34]) was at least 20 µM; in test [22] it was 0.019 µM; in test [18] (setting [35]) it was 6.22 µM; in test [19] (setting [34]) it was at least 20 µM; in test [23] (setting [34]), at least 20 µM; in [24] (setting [34]), at least 20 µM.

Regarding YLDDPDLKY, the Kd in [25] was at least 20 µM; in [9] (source organism: Homo sapiens), 0.0668 µM; in [10] (source organism: Homo sapiens) it was at least 24.4 µM; in test [11] (source organism: Homo sapiens), 18 µM; in test [13] (source organism: Homo sapiens), 0.437 µM; in test [16] (source organism: Homo sapiens) it was 3.36 µM.

Turning to IFKNLTKPL, the dissociation constant (Kd) in test [4] (setting [36]), in [7] (setting [36]), in [8] (setting [36]), in [1] (setting [36]), in test [26] (setting [36]) and in test [9] (setting [36]) was at least 20 µM in each case. Besides, the Kd in test [10] (setting [36]) is at least 20 µM; in test [11] (setting [36]), at least 20 µM; in [13] (setting [36]) it was 0.757 µM; in test [14] (setting [36]) it was at least 20 µM; in test [15] (setting [36]) it was at least 20 µM; in test [16] (setting [36]), at least 20 µM. In addition, the results for the equilibrium dissociation constant (Kd) in test [21] (setting [36]), in test [18] (setting [36]) and in [19] (setting [36]) were at least 20 µM, 0.774 µM and at least 20 µM, respectively.

With QTNLYNLLY, the values for the Kd in test [27], in [28] and in [29] were at least 20 µM, at least 20 µM and 4 µM, respectively.

Take GRKTPLLCF: the equilibrium dissociation constant (Kd) in test [7] (setting [37]) was at least 20 µM; in test [8] (setting [37]), at least 20 µM; in test [1] (source organism: Brucella melitensis), 0.939 µM; in test [9] (setting [37]), at least 20 µM; in test [10] (setting [37]) it was at least 20 µM; in test [11] (setting [37]) it was at least 20 µM. The dissociation constant (Kd) in [12] (setting [37]), in [13] (setting [37]), in [14] (setting [37]), in test [15] (setting [37]), in test [16] (setting [37]) and in [18] (setting [37]) was at least 20 µM in each case. In addition, the Kd in test [3] (source organism: Brucella suis 1330), in test [19] (setting [37]) and in test [24] (setting [37]) was at least 20 µM each time.

Regarding NTSTCFQEY, the dissociation constant Kd is at least 20 µM in test [4] (setting [38]); at least 20 µM in [7] (setting [38]); at least 20 µM in test [8] (setting [38]); at least 20 µM in [1] (setting [38]); at least 20 µM in test [26] (source organism: Cryptosporidium parvum Iowa II); 0.0305 µM in [9] (setting [38]). The dissociation constant Kd was at least 20 µM in test [11] (setting [38]); at least 20 µM in test [30]; 0.592 µM in test [13] (setting [38]); at least 20 µM in [14] (setting [38]); at least 20 µM in test [15] (setting [38]); at least 20 µM in test [16] (setting [38]). Also, the equilibrium dissociation constant (Kd) in test [19] (setting [38]) and in test [23] (setting [38]) was at least 20 µM throughout.
